# Experimental data taken from the DeepSol protein solubility set.
# Experiment: soluble on expression in E. coli; label from the status in PepcDB or PDB records
row,Sequence,soluble on expression in E. coli
1,MSLKFVGIVGSNAEQSYNRMLLEFIRKNFKTKFELEVLEIDDIPMFNQDQNWEESFQLRLLNNKITRADGVIIATPEHNHTITAALKSVLEWLSFAVHPLENKPVMIVGASYYDQGTSRAQIHLRKILDAPGVNAYTLPGNEFLLGKAKEAFDDNGNIINPGTVQFLETCLDNFIKYVGVVSSLRKPKAIESEDLYCQGQIDTTITGIDPDDPDWLDKAAEKVNAVEGDAYVKLDNGLLTVNQLNMFLNAMPFELTYADDNNQFLYYNNNHPDPDTMLGKRVREQVGNRMATVHGSLPPARMKNVEWVIGTLRNGNQEYVRTVVPGTPPEVINTHNYQAMYYPDGSYAGINEIIFNFKPWLDWYLQTTGQRLVGGTTAAPGASAVDATSSASTSTGDAPVDQATDATSGASEHEGHHHHHH,soluble
2,MSLKGDDIEEGKELVATHIAEGLYHDGKFVGYVKRAHDVDVNLNAHTMFENLVVKASGVLSAIQMLRHSKIDPAEIDYVIECSEEACGDINQRGGGNFAKSIAEIAGLQNATGSDTRGFCAAPTHALIQAAALVKAGIHKNVMVVAGGASAKLGMNAKDHVKKGLPVLEDVVGGFAVLVSENDGVNPVIRTDLTGKHTVGTGSSPQAVMTALITSGLDRANLKITDVDVYSVEMQNPDITKPAGAGDVPEANYKMIGALAVKRGDLEKKELKDFVSNKGLPGWAPTQGHIPSGAPYIGFLIDDLTTGNRNRAMIVGKGSLFLGRMTNLFDGVSFIAERNTGVTEETSGISKDEIKKIIAESMKKLALDMLEEGHHHHHH,not soluble
3,MSLKGKITLFFTALCFGLTGCIAPPKGLEKERFSINSYREISPQDLTCHCKTVRLGGKIVNTTVLANQTKIEVLSLPVSSISAKPFVELQSDGRFIVYFNGFVEPENLKERYITVGGQLAGTEKGKIEQADYTYPVVQADKYRIWTLSTTYDYPTDDWDEDDDWGFFRWRHRLWYVQPEIHYYLNEGGSHHHHHH,soluble
4,MSLKHRIEYAITNAVFVKADELSYLSFRVSGKVIEVYKDLGDYVKRGEALAKLDPTYYELEKRTLEKKMSALLEKKKALEIKIQKLEKGLHISLSAKKLKVESLKKKREALREKLLQVEEKIKLVKLDWERYKSLFQKGLIPRRKFEEVDTNLKVLLHEREYLEKSIQEINTEIKRAKKGIENARNEFKTIEELKKELSSLEEEIKSLKERIKTAEQKIKDTVLIAPFDGVVAKRFISRGDVVRAGQPAFALVNPESFYVEVLLEETKLKGVKVGNKAYVRLDAYPDILFEGVVEEISPASAATFALVPRDVSAGEFTKVVQRIPVKIKITKGDLSLLRVGMGGEVEIRRTREGHHHHHH,soluble
5,MSLKIEPCLPMKILIVEDDPLMQLGLEQALGAHERFEIIGRVDNGYGAVQQAAVLNPDLIVMDIGLPGLDGIEATKQIKQTSPQIHIVVLTSHTLPNEIIAALSSGADAYCVKGATLERLILAIAAAQDGATYLDPQIARVVVENLKPPVPEGQADVSSLSEREIDVLKLIVEGKSNQEIAQTLYLSTNTIKTHVRGIMNKLSVDDRVQAAVIALRSGLVEGHHHHHH,soluble
6,MSLKIEPKIFDELKTALVSFGDKYFVGEELNRSKLADDLRNYDEALLSKLFEVDFIMQHFVKEVAGQKLFQIEQLEEAVLYNDYWDTSYTKYENRVGLASKGKFLQDSQDVVLDFPFKDCVLTASMTKENNEEGYDDAFLNEVIEKDEIDRLFDKKVFVNVKRFGDNQGAQHSTAVDNEIVSFDKEKDNLIIKGNNLLALHALKNEFAGKVRQIYIDPPYNTGKDSFNYNDKFNHSSWLVFMKNRLEIAWELLSDDGTIWISIDGYESHYLKVLADGIFGAENFLDEVVWQRAYAPINLKKTFSKSHDYILVYAKNNSGAKELNRLPRKAEMVASYKNPDNDPRGVYKADNFSVGPAVEKNIYEITTPSGRKVLPPDGYSWRFSKERFEELLADNRVYFGKDGNSAPSYKRFLSEVKDGVVAQTLWTYQEVGHNQDAKKEIKSLFDGQTAFGTPKPEKLIQRILTLGSDENDLVLDFFMGSATTQAVAMKMNRRFIGIEQMDYISTVSVPRLQKVIEGEQGGISKDVNWQGGGSFVYAELFPKNMGYLQDVIHAKDLEELKSVYERMLSGTDTDEPADISFRADLSKIDWLQGFDENKRLLVKLLDKNGLYYNYSEIDDKNVRDLISDEDYTFNKNFYEGGEGHHHHHH,soluble
